{
  "source": "patent US20160347844A1",
  "about": "(Dana-Farber, published 2016)",
  "binders": {"B1": {"name": "mPD-L2-hIgG (R&D) (Fc fusion, mouse, UniProt Q9WUL5 20-219, looked up)", "chain": "LFTVTAPKEVYTVDVGSSVSLECDFDRRECTELEGIRASLQKVENDTSLQSERATLLEEQLPLGKALFHIPSVQVRDSGQYRCLVICGAAWDYKYLTVKVKASYMRIDTRILEVPGTGEVQLTCQARGYPLAEVSWQNVSVPANTSHIRTPEGLYQVTSVLRLKPQPSRNFSCMFWNAHMKELTSAIIDPLSRMEPKVPR", "notes": "The text of the result says only 'PD-L2-Ig'; also called PD-L2-Ig; mPD-L2-Ig; not shown: human IgG part of the bought fusion protein"}},
  "key": {"mPD-L2-hIgG (R&D) [1]": {"target": "B1", "test": "ELISA, PD-L2-Ig added to BMP-4-coated plate without RGMb, anti-hIgG-HRP (FIG. 1E)", "description": "(§1) FIG. 1 includes nine panels, identified as panels (A), (B), (C), (D), (E), (F), (G), (H), and (I), which show the blocking capacities of RGMb and PD-L2 mAbs and a model for RGMb, PD-L2, Neogenein, BMP, and BMP-receptor interactions. Panels A-C show the capacities of RGMb mAbs and PD-L2 mAbs to block RGMb binding to PD-L2 or to block PD-1 to PD-L2, as determined by cell conjugation assay. […] Binding of mRGMb-HIS was detected by anti-penta-HIS-HRP. […] Binding of Ig fusion proteins was detected with anti-hIgG-HRP. Similar results were also seen for BMP-2. […] Data shown in Panels 1A-1C and 1F-1H are representative of 2 or more independent experiments.\n(§2) To determine if RGMb binds PD-L2 and BMP-2/4 simultaneously, 96-well ELISA plates were coated with BMP-2/4 as above. mPD-L2-hIgG1/IgA, mPD-L2-hIgG (R&D), mPD-L1-hIgG (R&D) or control-Ig fusion proteins at 10 µg/ml were preincubated with 10 μg/ml mRGMb-HIS (R&D) or buffer alone for 15 min. at room temperature (RT), then added to the plates and incubated for 1h at 37° C. Alternatively, 10 μg/ml mRGMb-HIS (R&D) or buffer alone was added first to the plates and incubated for 1h at 37° C. After wash, mPD-L2-Ig or control-Ig fusion proteins were added and incubated for 1 h at 37° C. Fab₂ goat anti-hIgG-HRP (Jackson ImmunoResearch Laboratories) at 1:10000 was used for detection."}, "[2]": {"target": "T1, recombinant mRGMb-HIS (R&D) (mouse, UniProt Q7TQ33 49-415, limits assumed)", "T1 construct": "Bought (R&D); also called monomeric mRGMb-HIS; not shown: HIS tag", "T1 sequence": "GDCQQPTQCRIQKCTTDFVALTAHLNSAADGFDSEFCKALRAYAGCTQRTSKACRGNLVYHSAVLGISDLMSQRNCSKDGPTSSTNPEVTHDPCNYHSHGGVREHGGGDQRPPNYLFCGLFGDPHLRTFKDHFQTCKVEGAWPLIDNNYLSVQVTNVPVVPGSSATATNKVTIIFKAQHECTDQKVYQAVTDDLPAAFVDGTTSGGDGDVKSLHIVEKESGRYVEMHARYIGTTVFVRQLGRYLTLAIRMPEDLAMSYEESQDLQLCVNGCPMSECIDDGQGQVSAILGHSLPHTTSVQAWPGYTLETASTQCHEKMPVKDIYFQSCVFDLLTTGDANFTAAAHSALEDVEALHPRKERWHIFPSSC", "test": "ELISA, BMP-4-coated plate, mRGMb-HIS plus PD-L2-Ig, anti-hIgG-HRP", "description": "as §1, §2"}, "[3]": {"target": "T1, recombinant mRGMb-HIS (R&D)", "test": "ELISA, BMP-2-coated plate, mRGMb-HIS plus PD-L2-Ig, anti-hIgG-HRP", "method": "as §2"}, "mPD-L2-hIgG (R&D) [4]": {"target": "B1", "test": "ELISA, PD-L2-Ig added to BMP-2-coated plate without RGMb, anti-hIgG-HRP", "method": "as §2"}, "[5]": {"target": "T1, recombinant mRGMb-HIS (R&D)", "test": "ELISA, PD-L2-Ig captured through mRGMb-HIS on BMP-2/4-coated plate, anti-hIgG-HRP", "method": "as §2"}, "[6]": {"target": "T2, mouse RGMb on mRGMb transfected 300 cells (mouse, UniProt Q7TQ33 49-415)", "T2 construct": "also called 300-mRGMb cells; DRAGON", "T2 sequence": "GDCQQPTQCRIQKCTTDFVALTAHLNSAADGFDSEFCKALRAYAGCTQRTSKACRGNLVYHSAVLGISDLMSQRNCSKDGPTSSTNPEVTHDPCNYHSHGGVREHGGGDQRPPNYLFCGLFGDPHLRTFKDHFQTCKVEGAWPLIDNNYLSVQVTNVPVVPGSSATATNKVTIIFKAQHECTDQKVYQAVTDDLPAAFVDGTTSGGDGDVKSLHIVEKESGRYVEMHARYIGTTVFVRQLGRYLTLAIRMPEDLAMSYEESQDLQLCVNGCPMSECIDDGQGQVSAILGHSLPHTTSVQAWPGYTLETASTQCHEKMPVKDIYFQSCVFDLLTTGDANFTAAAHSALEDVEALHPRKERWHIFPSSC", "test": "cell conjugation assay / flow cytometry / ELISA of FIG. 1"}},
  "data": [
    {"binder": "recombinant mouse BMP-4 (R&D) (ligand, Bought; also called mBMP-4) SPKHHPQRSRKKNKNCRRHSLYVDFSDVGWNDWIVAPPGYQAFYCHGDCPFPLADHLNSTNHAIVQTLVNSVNSSIPKACCVPTELSAISMLYLDEYDKVVLKNYQEMVVEGCGCR", "values": [
      {"measurement": "binding result", "setting": "mPD-L2-hIgG (R&D) [1]", "result": "no binding"},
      {"measurement": "binding result", "setting": "[2]", "result": "binds"}
    ]},
    {"binder": "recombinant mouse BMP-2 (GIBCO) (ligand, Bought; also called mBMP-2) QAKHKQRKRLKSSCKRHPLYVDFSDVGWNDWIVAPPGYHAFYCHGECPFPLADHLNSTNHAIVQTLVNSVNSKIPKACCVPTELSAISMLYLDENEKVVLKNYQDMVVEGCGCR", "values": [
      {"measurement": "binding result", "setting": "[3]", "result": "binds"},
      {"measurement": "binding result", "setting": "mPD-L2-hIgG (R&D) [4]", "result": "no binding"}
    ]},
    {"binder": "B1", "values": [
      {"measurement": "binding result", "setting": "[5]", "result": "binds"}
    ]},
    {"binder": "mouse PD-L2 on mPD-L2 transfected 300 cells (ligand, UniProt Q9WUL5 20-247, looked up, whole, on cells; also called 300-mPD-L2) LFTVTAPKEVYTVDVGSSVSLECDFDRRECTELEGIRASLQKVENDTSLQSERATLLEEQLPLGKALFHIPSVQVRDSGQYRCLVICGAAWDYKYLTVKVKASYMRIDTRILEVPGTGEVQLTCQARGYPLAEVSWQNVSVPANTSHIRTPEGLYQVTSVLRLKPQPSRNFSCMFWNAHMKELTSAIIDPLSRMEPKVPRTWPLHVFIPACTIALIFLAIVIIQRKRI", "values": [
      {"measurement": "binding result", "setting": "[6]", "result": "binds"}
    ]}
  ]
}
